According to patent US20180128830A1, “DETECTION OF HUMAN CYTOMEGALOVIRUS IN BREAST CANCER” (priority 2015, published 2018):

Key:
Type in all cases: cell-based, human
[1] = test system: MTSS1; test: MTSS1 immunofluorescence microscopy; conditions: 100 ng/mL, 96 hrs
Procedure: MDA-MB-231 cells were seeded onto FBS-coated glass coverslips at a density of 2.0×10^5 cells/well and cultured for 48 hrs at 37° C. Cells were treated with 100 ng/mL of purified recombinant cmvIL-10 for 96 hrs, then fixed with 2% paraformaldehyde in DPBS for 20 min, washed, permeabilized with 0.2% Triton-X-100 in PBS for 15 min. The cells were washed and blocked with 10% FBS for 1 hr at 37° C., then incubated with anti-MTSS-1 antibody at a 1:100 dilution for 1 hr at 37° C. followed by the addition of goat anti-mouse TRITC secondary antibody at a 1:150 dilution for 30 min (Life Technologies) and Alexa Fluor 488 phalloidin (Molecular Probes, Eugene, Oreg.). Coverslips were washed and excess fluid was removed before inverting the coverslip onto a glass slide containing 20 μL of DAPI-containing Prolong Gold mounting medium (Life Technologies, Grand Island, N.Y.). Images were taken on a Zeiss AX10 Imager.A1 microscope (Carl Zeiss Inc., Oberkochen, Germany) using AxioVision 4.7.2 imaging software.

[2] = test system: MTSS1; test: MTSS1 immunoblotting; conditions: 10 ng/mL, beyond 24 hours
Procedure: Confluent T-75 flasks of MDA-MB-231 cells were treated with 10 ng/mL cmvIL-10 (R&D systems) for the indicated times, then scraped and harvested into cell lysis buffer (150 mM NaCl, 20 mM HEPES, 0.5% Triton-X-100, 1.0 mM NaOV4, 1.0 mM EDTA, 0.1% NaN3) containing 1× protease inhibitors (Calbiochem). Cell lysates were clarified via centrifugation, heated at 70° C. for 10 min in reducing buffer, and the proteins separated on a 4-12% Tris-Base SDS-PAGE gel (Life Technologies, Grand Island, N.Y.). After transfer to nitrocellulose, the membrane was incubated in blocking solution (5% milk+TBS) for 1 hr at room and then probed with primary antibody: 1:1000 dilution for MMP-3 or MTSS-1 antibodies (Santa Cruz), or MAPK antiserum (Cell Signaling Tech, Danvers, Mass.), in blocking solution overnight, oscillating on a platform rocker at 4.0° C. After three washes, the membranes were incubated with a 1:2000 dilution of appropriate AP-conjugated secondary antibody on a platform rocker at room temperature for 1 hr. Protein bands were detected using western blue stabilized AP substrate (Promega, Madison, Wis.). For zymography, cell lysates were denatured in SDS buffer under non-reducing conditions without heat, and run on a 4-16% Zymogram gel using Tris-Glycine SDS running buffer according to manufacturer's instructions. […]

[3] = test system: MMP-3; test: MMP-3 ELISA on cell lysates; conditions: 10 ng/ml, 48 hours
Procedure: DuoSet ELISA kits (R&D Systems) were used to quantify uPAR, PAI-1, and MMP-3. For uPAR and PAI-1 measurement, MDA cells were seeded in triplicate in 96-well plate at 5.0×10^4 cell/mL density with complete L-15 media and treated with 10 ng/mL of either cmvIL-10 or hIL-10 for the indicated times and supernatants were collected daily. The ELISA was carried out on supernatants according to manufacturer's instructions using and following the addition of substrate and stop solution, absorbance of the plate was measured at 450 nm using a Dynex Opsys MR microplate reader. Sample concentrations were interpolated from a standard curve using linear regression analysis. For cell-associated MMP-3, MDA cells were seeded in 96-well plates and treated with cmvIL-10 as above. Cells were treated with cell lysis buffer (150 mM NaCl, 20 mM HEPES, 0.5% Triton-X-100, 1.0 mM NaOV4, 1.0 mM EDTA, 0.1% NaN3) supplemented with 1× protease inhibitors (Calbiochem, EMD Chemicals, San Diego Calif.) and were collected daily for the indicated time points. The lysates were evaluated for MMP-3 according to the manufacturer's instructions (R&D Systems).

[4] = test system: MDA-MB-231 cells; test: DNA synthesis, BrdU Cell Proliferation ELISA; conditions: 100 ng/ml, vs control
Procedure: Cells were seeded into 96-well dishes at a density of 1×10^4 cell per well in complete medium with varying doses of cmvIL-10, and then cell viability measured at the indicated time points using the Cell Titer Glo Assay kit according to manufacturer's instructions (Promega). DNA synthesis was measured in cells prepared in the same way using the BrdU Cell Proliferation ELISA Kit (Roche, Basel, Switzerland). For experiments using inhibitors, cells were cultivated in 96-well dishes as above with a final concentration of 10 μM inhibitor and BrdU incorporation evaluated after 72 hrs. For cell counts, cells were seeded into 6-well plates at a density of 2×10^5 cells per well, harvested via trypsinization, and counted using a hemacytometer at the indicated time points. The TACS Annexin V-FITC Detection Kit (Trevigen, Gaithersburg, Md.) was used to stain cells harvested from 70% confluent T75 flasks that had been treated with 100 μM etoposide for 48 hrs in the presence or absence of 100 ng/ml cmvIL-10. Cells were then analyzed via flow cytometry to detect fluorescence. For viability assays, Cell Titer Glo reagent was utilized to quantify cells that had been seeded into 96-well dishes at a density of 1×10^4 cell per well in complete medium with varying doses of etoposide in the presence or absence of 100 ng/ml cmvIL-10 as indicated

B1: cmvIL-10 (protein)
chain: ATTTTIKNTKPQCRPEDYATRLQDLRVTFHRVKPTLQREDDYSVWLDGTVVKGCWGCSVMDWLLRRYLEIVFPAGDHVYPGLKTELHSMRSTLESIYKDMRQCPLLGCGDKSVISRLSQEAERKSDNGTRKGLSELDTLFSRLEEYLHSRK
With B1 the “MTSS1 protein (immunofluorescence)” value [1] was “dramatic reduction in the amount of MTSS1 protein”, the “MTSS1 protein (82 kD band)” value [2] was “significant decrease in MTSS1 expression” and the “cell-associated MMP-3 (cell lysates)” value [3] was “increased significantly”. For the same molecule, the “rate of DNA synthesis (BrdU incorporation)” value [4] was “significantly higher”.
